The target of this assay is T1, HDA9-3xFLAG (HISTONE DEACETYLASE 9, pHDA9::HDA9-3xFLAG/hda9) (Arabidopsis thaliana, UniProt Q8H0W2 1-426).
T1 construct: Histone deacetylase 9 (HDA9), RPD3-type deacetylase, Arabidopsis thaliana; genomic DNA with its 1 kb promoter cloned into pEarleyGate302; Primers are in Supplementary file 1; also called HDA9-FLAG; source: Arabidopsis transgenic plants (native HDA9 promoter, hda9 background): in leaf extract for IP-MS; purified on anti-FLAG M2 beads with 3xFLAG peptide elution for the pull-down
T1 sequence (looked up): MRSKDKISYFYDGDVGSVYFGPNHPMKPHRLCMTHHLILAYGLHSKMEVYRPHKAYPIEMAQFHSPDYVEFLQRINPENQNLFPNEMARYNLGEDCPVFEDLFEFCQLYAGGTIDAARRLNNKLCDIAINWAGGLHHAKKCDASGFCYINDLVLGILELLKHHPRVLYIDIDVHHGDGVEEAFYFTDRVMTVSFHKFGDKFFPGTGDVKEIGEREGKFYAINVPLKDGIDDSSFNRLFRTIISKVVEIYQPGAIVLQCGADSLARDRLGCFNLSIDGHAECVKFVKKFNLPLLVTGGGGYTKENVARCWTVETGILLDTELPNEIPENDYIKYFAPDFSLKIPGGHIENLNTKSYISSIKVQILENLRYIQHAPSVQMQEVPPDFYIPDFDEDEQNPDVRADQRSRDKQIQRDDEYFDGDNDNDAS
Briefly: pull-down; purified HDA9-FLAG incubated with GST-tagged protein in 20 mM Tris-HCl 8.0, 200 mM NaCl, 1 mM EDTA, 0.5% Nonidet P-40 for one hour, then Glutathione Sepharose 4B beads for one hour at 4°C; detected with anti-GST and anti-FLAG; two technical replicates. Particulars: both partners purified.

B1: GST-WRKY53 (GST tagged full-length WRKY53) (natural protein, Arabidopsis thaliana, UniProt Q9SUP6 1-324, looked up)
chain: MEGRDMLSWEQKTLLSELINGFDAAKKLQARLREAPSPSSSFSSPATAVAETNEILVKQIVSSYERSLLLLNWSSSPSVQLIPTPVTVVPVANPGSVPESPASINGSPRSEEFADGGGSSESHHRQDYIFNSKKRKMLPKWSEKVRISPERGLEGPQDDVFSWRKYGQKDILGAKFPRSYYRCTHRSTQNCWATKQVQRSDGDATVFEVTYRGTHTCSQAITRTPPLASPEKRQDTRVKPAITQKPKDILESLKSNLTVRTDGLDDGKDVFSFPDTPPFYNYGTINGEFGHVESSPIFDVVDWFNPTVEIDTTFPAFLHESIYY
notes: WRKY53 transcription factor, Arabidopsis thaliana; full-length cDNA cloned into pGOOD (pGEX-6P modified by adding a 6XHIS tag at the C terminus); Primers are in Supplementary file 1; source: E. coli, induced with 200 uM IPTG for three hours at 37°C, purified
For the molecule B1, the binding result is “binds”.

These data come from publication PMC5119886, “POWERDRESS interacts with HISTONE DEACETYLASE 9 to promote aging in Arabidopsis” (eLife, 2016).
